Assay [1] concerns the target T1, human ROR2 (human, UniProt Q01974 34-403, limits assumed). The experiment in a line: SPR. An outline of the steps: (§1)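 Using surface plasmon resonance, the dissociation constant (Kd, nM) was determined for binding of humanized anti-human ROR2 monoclonal antibodies to human ROR2. These antibodies carry murine complementarity-determining regions in human acceptor frameworks and a human IgG1 constant region. No antigen format, concentrations, temperature, buffer or replicate count is stated.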

Assay [2] concerns the target T1, human ROR2. The experiment in a line: SPR. The method, boiled down:
as §1
This is another data set of the same source.

In assay [3] the target is T2, recombinant human ROR2 H349R (human, UniProt Q01974 34-403).
T2 construct: Human residue replaced with the mouse residue
T2 sequence (Q01974 34-403 H349R limits assumed): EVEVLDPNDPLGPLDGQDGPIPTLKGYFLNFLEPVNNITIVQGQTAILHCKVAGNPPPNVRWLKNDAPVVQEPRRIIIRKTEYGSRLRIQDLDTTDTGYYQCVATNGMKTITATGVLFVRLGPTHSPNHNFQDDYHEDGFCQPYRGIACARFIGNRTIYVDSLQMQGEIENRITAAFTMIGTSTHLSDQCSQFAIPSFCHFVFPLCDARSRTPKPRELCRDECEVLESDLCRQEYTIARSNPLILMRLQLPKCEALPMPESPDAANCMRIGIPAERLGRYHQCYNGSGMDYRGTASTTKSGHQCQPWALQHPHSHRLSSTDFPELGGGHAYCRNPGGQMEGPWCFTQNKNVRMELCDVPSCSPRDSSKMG
The assay is described as follows: dot blot of arrayed recombinant proteins (key on the sheet).

The target in the next assay is recombinant ROR1 (Homo sapiens (Human), UniProt Q01973 30-406). Described as above.
recombinant ROR1, sequence (Q01973 30-406 limits assumed): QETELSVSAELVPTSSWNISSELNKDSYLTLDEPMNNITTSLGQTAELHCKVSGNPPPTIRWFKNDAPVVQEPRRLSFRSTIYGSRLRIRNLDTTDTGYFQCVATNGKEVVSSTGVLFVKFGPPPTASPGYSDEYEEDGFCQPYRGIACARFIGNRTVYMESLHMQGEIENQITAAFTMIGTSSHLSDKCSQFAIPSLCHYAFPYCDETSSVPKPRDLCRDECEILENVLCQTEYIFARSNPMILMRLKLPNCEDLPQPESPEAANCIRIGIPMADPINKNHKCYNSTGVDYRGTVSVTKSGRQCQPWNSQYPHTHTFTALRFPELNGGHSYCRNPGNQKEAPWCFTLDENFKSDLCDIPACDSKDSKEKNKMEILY
The target of assay [4] is T3, recombinant mouse ROR2 (extracellular portion) (mouse, UniProt Q9Z138 34-403).
T3 construct: also called mROR2
T3 sequence (Q9Z138 other isoform, or with tags, fused parts or gaps limits assumed): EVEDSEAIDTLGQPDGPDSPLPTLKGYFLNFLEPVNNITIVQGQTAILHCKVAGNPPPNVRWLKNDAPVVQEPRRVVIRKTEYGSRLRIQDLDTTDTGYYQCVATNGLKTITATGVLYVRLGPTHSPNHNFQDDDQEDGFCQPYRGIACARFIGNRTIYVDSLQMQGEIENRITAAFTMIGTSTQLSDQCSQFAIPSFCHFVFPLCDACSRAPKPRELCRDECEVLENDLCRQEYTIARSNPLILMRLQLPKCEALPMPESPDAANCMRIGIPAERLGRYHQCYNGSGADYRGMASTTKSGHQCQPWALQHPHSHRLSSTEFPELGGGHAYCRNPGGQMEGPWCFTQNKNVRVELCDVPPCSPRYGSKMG
Described as above.

The target of assay [5] is recombinant human ROR2 D354E (human, UniProt Q01974 34-403). The assay is described as above.
recombinant human ROR2 D354E, sequence (Q01974 34-403 D354E limits assumed): as the sequence (Q01974 34-403 H349R limits assumed) above, with R316H, D321E counted along it
Another assay concerns the target T4, ROR1-Ig (human, UniProt Q01973 30-406).
T4 construct: extracellular domain; also called control ROR1-Ig; not shown: CH2-CH3 constant region domains of human IgG1 (same human IgG domains as ROR2-Ig)
The experiment in a line: flow cytometry, ROR1-Ig then anti-human IgG-PE, Jurkat cells transfected with the CAR. The protocol: All cells were assessed after 48 hours by flow cytometry for binding of recombinant human ROR2-Ig protein comprised of the ROR2 extracellular domain and the CH2-CH3 constant region domains of human IgG1. Cells were stained on ice for 20 minutes with 1 μg/ml of recombinant ROR2-Ig (upper panel) or 1 μg/ml of control ROR1-Ig (lower panel). washed, stained for an additional 20 minutes on ice with phycoerythrin (PE)-conjugated anti-human IgG1 antibody, washed and analyzed by flow cytometry. Shaded histograms depict the relative fluorescence intensity (x axis) of viable cells, as determined by light scatter characteristics, stained with either ROR2-Ig or ROR1-Ig compared to cells stained with the anti-human IgG1-PE antibody only (open histograms). […] Conversely, ROR1 CAR transfected cells bind only to ROR1-Ig.

The values below come from patent US20260209348A1 (University of California, published 2026).

Residue numbers refer to the chain shown, from its start. Read-outs that look alike come from different tables or passages of the source.

T1 sequence (Q01974 34-403 limits assumed): as the sequence (Q01974 34-403 H349R limits assumed) above, with R316H counted along it
T4 sequence (Q01973 30-406): as the sequence (Q01973 30-406 limits assumed) above

B1: h6E6-058 (antibody, human IgG1, V domains shown)
VH: EVQLVESGGGLVKPGGSLRLSCAASGFTFSVYGLSWVRQAPGKGLEWVSTISSGGGYTQYAPSVKGRFTISRDNAKNSLYLQMNSLRAEDTAVYYCARHPRDFSYAFDYWGQGTTVTVSS
VL: EIVMTQSPATLSVSPGERATLSCKASQDVGHYLAWYQQKPGQAPRLLIYWASTRATGIPARFSGSGSGTEFTLTISSLQSEDFAVYYCQQYNIYPWTFGQGTKVEIK
notes: human IgG1; also called clone 58
Turning to B1, the Kd with human ROR2 [1] and with human ROR2 [2] was 0.187 nM in each case. The binding result (in assay [3]; with recombinant ROR1; in assay [4]; in assay [5]) was “no binding” in each case.

B2: h6E6-063 (antibody, human IgG1, V domains shown)
VH: B1 VH with V31A, L34T, Q59Y, P62A, F107I
VL: B1 VL with K24R
notes: human IgG1; also called clone 63
B2: the Kd with human ROR2 [1] and in the assay with human ROR2 [2] was 0.475 nM throughout. For the same molecule, the binding result (in assay [3]; with recombinant ROR1; in assay [4]; in assay [5]) was “no binding” each time.

B3: h6E6-116 anti-human ROR2 chimeric antigen receptor (other, not shown: small tags and cut ends)
chain: EVQLVESGGGLVKPGGSLRLSCAASGFTFSTYGVSWVRQAPGKGLEWVSTISSGGGYTHYAGSVKGRFTISRDNAKNSLYLQMNSLRAEDTAVYYCARHPRDFSYALDYWGQGTTVTVSSEIVMTQSPATLSVSPGERATLSCRASQDVGHYLAWYQQKPGQAPRLLIYWASTRATGIPARFSGSGSGTEFTLTISSLQSEDFAVYYCQQYNIYPWTFGQGTKVEIK
notes: Expressed on transfected Jurkat cells
On to B3, for which the binding result in the assay with ROR1-Ig is given as “no binding (tested: 1 ug/ml)”.
